Source: patent US20230346969A1, “INTERMEDIATE FOR PREPARING ANTIBODY-DRUG CONJUGATE (ADC), PREPARATION METHOD THEREFOR, AND USE THEREOF” (priority 2020, published 2023)

Columns and labels:
[1] = target: Human trophoblast cell surface antigen 2 (Trop-2), on tumor cell lines (human) (UniProt P09758); test: flow cytometry background, taken as human IgG1 isotype control; cell line printed 'NCl-H1828' (probably NCI-H1688, called Trop-2-negative in paragraph 230)
[2] = target: Human trophoblast cell surface antigen 2 (Trop-2), on tumor cell lines (human) (UniProt P09758); test: flow cytometry background, taken as human IgG1 isotype control; cell line printed 'HOC1906' (probably HCC1806)
[3] = target: Human trophoblast cell surface antigen 2 (Trop-2), on tumor cell lines (human) (UniProt P09758); test: flow cytometry background, taken as human IgG1 isotype control; cell line printed 'SK-M55-1' (probably SK-MES-1)
[4] = target: Human trophoblast cell surface antigen 2 (Trop-2), on tumor cell lines (human) (UniProt P09758); test: flow cytometry background, taken as human IgG1 isotype control; cell line printed '3128' (probably HT29)
[5] = target: Human trophoblast cell surface antigen 2 (Trop-2), on tumor cell lines (human) (UniProt P09758); test: flow cytometry background, taken as human IgG1 isotype control; cell line CFPAC-1
[6] = target: Human trophoblast cell surface antigen 2 (Trop-2), on tumor cell lines (human) (UniProt P09758); test: flow cytometry background, taken as human IgG1 isotype control; cell line printed 'CPAC-1' (probably CFPAC-1)
[7] = target: Human trophoblast cell surface antigen 2 (Trop-2), on tumor cell lines (human) (UniProt P09758); test: flow cytometry background, taken as human IgG1 isotype control; cell line printed 'ECLC 214' (probably SCLC-21H)
[8] = target: Human trophoblast cell surface antigen 2 (Trop-2), on tumor cell lines (human) (UniProt P09758); test: flow cytometry background, taken as human IgG1 isotype control; cell line printed 'HCl-11685' (probably NCI-H1688, called Trop-2-negative in paragraph 230)
[9] = target: Human trophoblast cell surface antigen 2 (Trop-2), on tumor cell lines (human) (UniProt P09758); test: flow cytometry background, taken as human IgG1 isotype control; cell line printed 'MOA-413-468' (probably MDA-MB-468)
[10] = target: Human trophoblast cell surface antigen 2 (Trop-2), on tumor cell lines (human) (UniProt P09758); test: flow cytometry background, taken as human IgG1 isotype control; cell line printed 'SK8RS' (probably SKBR3)
[11] = target: Human trophoblast cell surface antigen 2 (Trop-2), on tumor cell lines (human) (UniProt P09758); test: flow cytometry background, taken as human IgG1 isotype control; cell line printed 'RMCA' (pancreas; probably BXPC-3)
[12] = target: Human trophoblast cell surface antigen 2 (Trop-2), on tumor cell lines (human) (UniProt P09758); test: flow cytometry background, taken as human IgG1 isotype control; cell line printed 'COXC28' (probably COLO205)
[13] = target: Human trophoblast cell surface antigen 2 (Trop-2), on tumor cell lines (human) (UniProt P09758); test: flow cytometry background, taken as human IgG1 isotype control; cell line printed 'Cxoo-1' (probably Capan-1)
[14] = target: Human trophoblast cell surface antigen 2 (Trop-2), on tumor cell lines (human) (UniProt P09758); test: flow cytometry background, taken as human IgG1 isotype control; cell line printed 'HOC2401' (probably NCIH2452)
[15] = target: Human trophoblast cell surface antigen 2 (Trop-2), on tumor cell lines (human) (UniProt P09758); test: flow cytometry background, taken as human IgG1 isotype control; cell line printed 'SRM-M9-409' (probably MDA-MB-468)
[16] = target: Human trophoblast cell surface antigen 2 (Trop-2), on tumor cell lines (human) (UniProt P09758); test: flow cytometry background, taken as human IgG1 isotype control; cell line printed 'HCCHOI' (probably HCC1806)
[17] = target: Human trophoblast cell surface antigen 2 (Trop-2), on tumor cell lines (human) (UniProt P09758); test: flow cytometry background, taken as human IgG1 isotype control; cell line printed 'H123' (probably HT29)
[18] = target: Human trophoblast cell surface antigen 2 (Trop-2), on tumor cell lines (human) (UniProt P09758); test: flow cytometry background, taken as human IgG1 isotype control; cell line printed 'CCAO205' (probably COLO205)
[19] = target: Human trophoblast cell surface antigen 2 (Trop-2), on tumor cell lines (human) (UniProt P09758); test: flow cytometry background, taken as human IgG1 isotype control; cell line printed 'MCP-83-21' (probably MDA-MB-231)
[20] = target: Human trophoblast cell surface antigen 2 (Trop-2), on tumor cell lines (human) (UniProt P09758); test: flow cytometry background, taken as human IgG1 isotype control; cell line printed 'SRM-C-21H' (probably SCLC-21H)
[21] = target: Human trophoblast cell surface antigen 2 (Trop-2), on tumor cell lines (human) (UniProt P09758); test: flow cytometry background, taken as human IgG1 isotype control; cell line printed 'SK-WSS-7' (probably SK-MES-1)
[22] = target: Human trophoblast cell surface antigen 2 (Trop-2), on tumor cell lines (human) (UniProt P09758); test: flow cytometry background, taken as human IgG1 isotype control; cell line printed 'Cepes-3' (probably Capan-1)
[23] = target: Human trophoblast cell surface antigen 2 (Trop-2), on tumor cell lines (human) (UniProt P09758); test: flow cytometry background, taken as human IgG1 isotype control; cell line printed 'SRM-K9-231' (probably MDA-MB-231)
[24] = target: Human trophoblast cell surface antigen 2 (Trop-2), on tumor cell lines (human) (UniProt P09758); test: flow cytometry background, taken as human IgG1 isotype control; cell line printed 'BKFC-Y' (probably BXPC-3)
[25] = target: Human trophoblast cell surface antigen 2 (Trop-2), on tumor cell lines (human) (UniProt P09758); test: flow cytometry background, taken as human IgG1 isotype control; cell line printed 'SKERS' (probably SKBR3)
[26] = Preparation of control ADC via hydrophobic VC linker (behaviour in solution); type: physicochemical; details: hydrophobic VC linker with PTX payload
Description: A Troptargeted hRS7-VC-PTX molecule was prepared via a hydrophobic VC linker (FIG. 1a).

[27] = target: Human trophoblast cell surface antigen 2 (Trop-2), on tumor cell lines (human) (UniProt P09758); test: flow cytometry, 5 ug/mL hRS7 + PE anti-human IgG; cell line printed 'CPAC-1' (pancreas; probably CFPAC-1)
[28] = target: Human trophoblast cell surface antigen 2 (Trop-2), on tumor cell lines (human) (UniProt P09758); test: flow cytometry, 5 ug/mL hRS7 + PE anti-human IgG; cell line CFPAC-1 (pancreas)

Chain of UniProt P09758 (P09758 27-323): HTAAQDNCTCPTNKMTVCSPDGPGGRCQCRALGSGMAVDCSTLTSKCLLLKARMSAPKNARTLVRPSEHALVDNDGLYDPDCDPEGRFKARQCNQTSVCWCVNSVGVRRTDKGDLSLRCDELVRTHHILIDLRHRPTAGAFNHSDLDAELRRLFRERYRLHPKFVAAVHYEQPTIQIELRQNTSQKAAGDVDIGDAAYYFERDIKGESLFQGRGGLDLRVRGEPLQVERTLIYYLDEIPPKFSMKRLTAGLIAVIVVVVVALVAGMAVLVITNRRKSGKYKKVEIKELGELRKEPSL

human IgG1 isotype control (antibody)
MFI (background) [1]: 480 MFI
MFI (background) [2]: 192 MFI
MFI (background) [3]: 801 MFI
MFI (background) [4]: 866 MFI
MFI (background) [5]: 1580 MFI
MFI (background) [6]: 1580 MFI
MFI (background) [7]: 1230 MFI
MFI (background) [8]: 868 MFI
MFI (background) [9]: 678 MFI
MFI (background) [10]: 1830 MFI
MFI (background) [11]: 1080 MFI
MFI (background) [12]: 811 MFI
MFI (background) [13]: 3650 MFI
MFI (background) [14]: 1580 MFI
MFI (background) [15]: 378 MFI
MFI (background) [16]: 692 MFI
MFI (background) [17]: 894 MFI
MFI (background) [18]: 1530 MFI
MFI (background) [19]: 1250 MFI
MFI (background) [20]: 1220 MFI
MFI (background) [21]: 691 MFI
MFI (background) [22]: 3580 MFI
MFI (background) [23]: 1250 MFI
MFI (background) [24]: 1670 MFI
MFI (background) [25]: 1850 MFI

hRS7-VC-PTX
behaviour in solution during the preparation process [26]: completely precipitated out of solution

Humanized Trop-2 antibody hRS7
MFI [27]: 3840 MFI
MFI [28]: 35400 MFI
